Test results reported in publication PMC6044281, “Cooperative Domain Formation by Homologous Motifs in HOIL-1L and SHARPIN Plays A Crucial Role in LUBAC Stabilization” (Cell reports, 2018).

B1: mSHARPIN_(163–301) [mouse] / GST-mHOIP_(466–630) [mouse] (parent)
chain 1: SSGNFKKEELATRLSQAIAGGDEKAAAQVAAVLAQHHVALNVQLMEAWFPPGPIRLQVTVEDATSVLSSSSSAHVSLKIHPHCSIAALQDQVFSEFGFPPAVQRWVIGRCLCMPERSLASYGVSQDGDPAFLYLLSAPR
chain 2: SCGDPEKQRQDKMRKEGLQLVSMIQEGETAGASPEEVFSALQYSGTEVPLQWLRSELSYVLEMVAELAGQQDPELGAFSCQEARKAWLDRHGNLDEAVEECVRARRRKVHELQSLGFGPKEGSLQALFQHGGDVARALTELQRQRLEPFHQRLWDRDPEPTPCWD

Variants of: B1
Assay: SPR
Settings: with GST-mHOIP_(466–630) [mouse]; response read at end of injection (about 185 s); GST-mHOIP D-UBA WT immobilized with anti-GST antibody; parent: 20; read off a plot

Variant	response [RU]
chain 1 SSGNFKKEELATRASQAAAGGDEKAAAQVAAVLAQHHVALNVQLMEAWFPPGPIRLQVTVEDATSVLSSSSSAHVSLKIHPHCSIAALQDQVFSEFGFPPAVQRWVIGRCLCMPERSLASYGVSQDGDPAFLYLLSAPR	-20
